± gives the uncertainty stated by the source.
B1: POU domain, class 4, transcription factor 3, residues 185 to 256; numbered along this chain, Q15319 (parent)
chain: RELEAFAERFKQRRIKLGVTQADVGAALANLKIPGVGSLSQSTICRFESLTLSHNNMIALKPVLQAWLEEAE

Variants of: B1
Experiment: abundance fitness (aPCA) (normalised: wild type 0, dead -1); higher = more abundant; growth selection in yeast, the domain comes from the species named
Settings: Homo sapiens
For L28D, the abundance fitness was -0.716 ± 0.16.
L28M gave an abundance fitness of -0.095 ± 0.15.
Variant L28V has an abundance fitness of -0.126 ± 0.079.
With L28E the abundance fitness was -0.985 ± 0.27.
Work on S49T yielded an abundance fitness of 0.037 ± 0.06.
With S49R the abundance fitness was -0.136 ± 0.066.
With S49C the abundance fitness was -0.127 ± 0.12.
Variant S49K has an abundance fitness of -0.039 ± 0.1.
In the case of S49N, the abundance fitness is reported as -0.005 ± 0.13.
Work on S49W yielded an abundance fitness of -0.884 ± 0.31.
Work on F10M yielded an abundance fitness of -0.881 ± 0.3.
F10I showed an abundance fitness of -0.813 ± 0.3.
Work on F10G yielded an abundance fitness of -1.03 ± 0.068.
In the case of K61T, the abundance fitness is reported as -0.061 ± 0.058.
With K61H the abundance fitness was -0.105 ± 0.062.
S42M gave an abundance fitness of -0.1 ± 0.099.
S42I gave an abundance fitness of -0.363 ± 0.15.
E72F showed an abundance fitness of -0.63 ± 0.043.
E72D showed an abundance fitness of -0.111 ± 0.042.
For E72N, the abundance fitness was -0.192 ± 0.057.
For E72T, the abundance fitness was -0.219 ± 0.043.
For E72Q, the abundance fitness was -0.263 ± 0.042.
E72R showed an abundance fitness of -0.526 ± 0.035.
With E72Y the abundance fitness was -0.544 ± 0.054.
With E72G the abundance fitness was -0.278 ± 0.037.
Work on E72L yielded an abundance fitness of -0.363 ± 0.024.
A71D showed an abundance fitness of -0.574 ± 0.12.
Variant A71I has an abundance fitness of -0.178 ± 0.037.
A71F gave an abundance fitness of -0.139 ± 0.034.
In the case of A71V, the abundance fitness is reported as -0.073 ± 0.036.
In the case of A71S, the abundance fitness is reported as -0.108 ± 0.039.
With A71M the abundance fitness was -0.106 ± 0.026.
P34K gave an abundance fitness of -0.433 ± 0.33.
Work on P34G yielded an abundance fitness of -0.313 ± 0.33.
P34C showed an abundance fitness of -0.137 ± 0.16.
Work on P34W yielded an abundance fitness of -0.571 ± 0.36.
Work on P34T yielded an abundance fitness of -0.058 ± 0.094.
In the case of P34F, the abundance fitness is reported as -0.474 ± 0.1.
Variant P34M has an abundance fitness of -0.141 ± 0.093.
Work on P34S yielded an abundance fitness of -0.124 ± 0.061.
Work on K16S yielded an abundance fitness of 0.011 ± 0.027.
For K16C, the abundance fitness was 0.017 ± 0.051.
Work on K16V yielded an abundance fitness of -0.099 ± 0.042.
Variant K16G has an abundance fitness of -0.129 ± 0.042.
With K16H the abundance fitness was -0.077 ± 0.045.
For V36W, the abundance fitness was -0.091 ± 0.11.
V36Y showed an abundance fitness of -0.121 ± 0.19.
With V36R the abundance fitness was -0.332 ± 0.052.
V36T gave an abundance fitness of -0.3 ± 0.079.
V36E gave an abundance fitness of -0.055 ± 0.2.
C45I showed an abundance fitness of 0.104 ± 0.069.
For C45K, the abundance fitness was 0.109 ± 0.17.
C45P showed an abundance fitness of -0.25 ± 0.05.
In the case of L50D, the abundance fitness is reported as -0.139 ± 0.3.
With L50P the abundance fitness was -1.02 ± 0.14.
With L50K the abundance fitness was -0.012 ± 0.073.
In the case of L50G, the abundance fitness is reported as 0.043 ± 0.034.
In the case of E8S, the abundance fitness is reported as -0.033 ± 0.055.
E8W showed an abundance fitness of -0.2 ± 0.051.
Variant E8T has an abundance fitness of 0.053 ± 0.065.
In the case of E8I, the abundance fitness is reported as 0 ± 0.12.
Work on E8Q yielded an abundance fitness of 0.073 ± 0.091.
With E8C the abundance fitness was -0.212 ± 0.071.
L39S gave an abundance fitness of -0.109 ± 0.23.
Variant L39A has an abundance fitness of -0.053 ± 0.15.
L39D gave an abundance fitness of -0.304 ± 0.16.
A27T gave an abundance fitness of 0.205 ± 0.26.
For A27W, the abundance fitness was -0.202 ± 0.059.
With A27V the abundance fitness was -0.139 ± 0.047.
A27L gave an abundance fitness of -0.233 ± 0.064.
In the case of A27K, the abundance fitness is reported as -0.126 ± 0.11.
In the case of A27F, the abundance fitness is reported as -0.283 ± 0.11.
In the case of L68Y, the abundance fitness is reported as -0.287 ± 0.052.
L68P showed an abundance fitness of -1.06 ± 0.14.
L68W showed an abundance fitness of -0.574 ± 0.041.
For L68A, the abundance fitness was -0.287 ± 0.032.
L68D showed an abundance fitness of -0.872 ± 0.078.
L68C showed an abundance fitness of -0.257 ± 0.072.
With L68R the abundance fitness was -0.96 ± 0.068.
Variant L17Q has an abundance fitness of -0.983 ± 0.34.
L17I showed an abundance fitness of -0.359 ± 0.22.
L17N gave an abundance fitness of -0.474 ± 0.47.
Work on L17M yielded an abundance fitness of -0.099 ± 0.16.
For S38T, the abundance fitness was 0.017 ± 0.03.
For S38F, the abundance fitness was 0.057 ± 0.095.
For S38P, the abundance fitness was 0.055 ± 0.041.
Variant W67L has an abundance fitness of -0.549 ± 0.052.
With S40W the abundance fitness was -0.42 ± 0.23.
In the case of S40M, the abundance fitness is reported as -0.29 ± 0.12.
For S40D, the abundance fitness was 0.037 ± 0.22.
S40C showed an abundance fitness of -0.066 ± 0.12.
G18S gave an abundance fitness of -0.435 ± 0.08.
G18L showed an abundance fitness of -0.703 ± 0.064.
For G18C, the abundance fitness was -0.572 ± 0.097.
G18A gave an abundance fitness of -0.43 ± 0.12.
In the case of Q12T, the abundance fitness is reported as -0.113 ± 0.056.
Q12R gave an abundance fitness of -0.187 ± 0.068.
In the case of Q12G, the abundance fitness is reported as -0.377 ± 0.2.
With Q12P the abundance fitness was -1.02 ± 0.17.
In the case of Q12A, the abundance fitness is reported as 0.006 ± 0.095.
In the case of Q12E, the abundance fitness is reported as 0.07 ± 0.31.
With Q12N the abundance fitness was 0.189 ± 0.12.
In the case of Q12M, the abundance fitness is reported as -0.034 ± 0.048.
Q12I showed an abundance fitness of -0.172 ± 0.089.
Work on Q12K yielded an abundance fitness of -0.115 ± 0.062.
In the case of Q12Y, the abundance fitness is reported as 0.121 ± 0.24.
For M57L, the abundance fitness was -0.045 ± 0.42.
With M57Q the abundance fitness was -0.359 ± 0.12.
Variant E69Y has an abundance fitness of -0.059 ± 0.069.
Work on E69A yielded an abundance fitness of 0.04 ± 0.048.
Work on E69F yielded an abundance fitness of -0.2 ± 0.06.
Work on E69P yielded an abundance fitness of -0.672 ± 0.058.
E69N showed an abundance fitness of -0.06 ± 0.11.
For E69T, the abundance fitness was -0.075 ± 0.04.
With E69D the abundance fitness was -0.039 ± 0.078.
For E69I, the abundance fitness was -0.106 ± 0.059.
E69H showed an abundance fitness of -0.332 ± 0.15.
For E69R, the abundance fitness was -0.065 ± 0.033.
E69C showed an abundance fitness of 0.006 ± 0.073.
Work on L60G yielded an abundance fitness of -0.638 ± 0.5.
For L60K, the abundance fitness was -0.859 ± 0.3.
Variant V24W has an abundance fitness of -0.61 ± 0.055.
V24G showed an abundance fitness of -0.858 ± 0.075.
In the case of V24I, the abundance fitness is reported as -0.123 ± 0.051.
With L3M the abundance fitness was -0.261 ± 0.093.
In the case of L3E, the abundance fitness is reported as -0.395 ± 0.33.
In the case of L3K, the abundance fitness is reported as -0.482 ± 0.083.
Variant L3S has an abundance fitness of -0.359 ± 0.36.
With R14M the abundance fitness was -0.945 ± 0.084.
For R14V, the abundance fitness was -0.759 ± 0.071.
R14G gave an abundance fitness of -0.951 ± 0.13.
Work on R14L yielded an abundance fitness of -0.805 ± 0.058.
R14C showed an abundance fitness of -0.887 ± 0.13.
With I15L the abundance fitness was -0.088 ± 0.044.
I15D showed an abundance fitness of -0.229 ± 0.071.
I15H showed an abundance fitness of -0.37 ± 0.19.
In the case of I15T, the abundance fitness is reported as 0.02 ± 0.1.
In the case of I15S, the abundance fitness is reported as -0.183 ± 0.12.
For I15K, the abundance fitness was -0.052 ± 0.094.
Variant I15C has an abundance fitness of -0.223 ± 0.1.
Work on E70Q yielded an abundance fitness of -0.084 ± 0.055.
Variant E70I has an abundance fitness of -0.348 ± 0.054.
E70C showed an abundance fitness of -0.271 ± 0.045.
For E70L, the abundance fitness was -0.323 ± 0.029.
Variant E70K has an abundance fitness of -0.03 ± 0.053.
Variant G25K has an abundance fitness of -0.311 ± 0.37.
With G25W the abundance fitness was -0.317 ± 0.14.
Work on G25M yielded an abundance fitness of -0.27 ± 0.11.
For G25N, the abundance fitness was -0.963 ± 0.49.
K11I gave an abundance fitness of -0.123 ± 0.055.
Work on K11M yielded an abundance fitness of -0.125 ± 0.049.
Variant K11V has an abundance fitness of -0.186 ± 0.12.
Variant K11N has an abundance fitness of -0.88 ± 0.24.
With K11F the abundance fitness was -0.478 ± 0.063.
Work on K11H yielded an abundance fitness of -0.1 ± 0.17.
In the case of T51P, the abundance fitness is reported as -1.19 ± 0.27.
Work on T51Q yielded an abundance fitness of -0.074 ± 0.11.
T51M gave an abundance fitness of 0.096 ± 0.17.
T51C showed an abundance fitness of -0.121 ± 0.12.
T51A showed an abundance fitness of -0.041 ± 0.056.
Variant T51E has an abundance fitness of -0.146 ± 0.29.
T51K showed an abundance fitness of 0.111 ± 0.12.
T51V showed an abundance fitness of -0.112 ± 0.073.
T43S showed an abundance fitness of -0.2 ± 0.055.
T43F showed an abundance fitness of -0.425 ± 0.17.
T43E showed an abundance fitness of -0.235 ± 0.26.
Variant T43R has an abundance fitness of -0.607 ± 0.11.

— the Human Domainome abundance scans (Beltran et al. 2025)
